Consider 2 substances from paper PMC4872100.

Common to all, as to assay: SPR
On the technique in general: SPR reads the build-up and loss of mass on a sensor chip optically.

The target of test [1] is human uracil DNA glycosylase (human UDG) (human) (UniProt P13051).
Test [2] concerns the target Mycobacterium tuberculosis uracil DNA glycosylase (TBUDG) (Mycobacterium tuberculosis) (UniProt P9WFQ9).
Test [3] addresses Epstein-Barr virus (human herpesvirus 4) uracil DNA glycosylase (EBVUDG) (Epstein-Barr virus (EBV; human herpesvirus 4)) (UniProt P12888).

For orientation: Kd means the constant that tells how readily two partners part at equilibrium. As usually defined, the koff is the rate constant with which the complex falls apart. Low readings indicate a long-lived complex, high ones a short-lived complex. For orientation: kon means the rate constant with which the complex forms. Low values mean slow association, high ones fast association. In test [1], SAUGI E24AQ52R (natural protein) showed a Kd of 3.3 nM, a dissociation rate constant (koff) of 0.00529 s⁻¹ and an on-rate (kon) of 1.6e+06 M⁻¹ s⁻¹.

In test [2], “Staphylococcus aureus uracil-DNA glycosylase inhibitor SAUGI (natural protein)” registered a Kd of 198 nM; a ka1 (two-state model, step 1) of 4.32e+06 M⁻¹ s⁻¹; a ka2 (two-state model, step 2) of 20 M⁻¹ s⁻¹; a kd1 (two-state model, step 1) of 1.39 s⁻¹. In test [1], the Kd stood at 1.96 nM, the koff was 0.00361 s⁻¹ and the kon was found to be 1.85e+06 M⁻¹ s⁻¹. Moreover, in test [3], the Kd worked out at 0.475 nM, the koff was 0.0012 s⁻¹ and the kon was determined as 2.54e+06 M⁻¹ s⁻¹.
